Data from patent publication US20210162061A1 (DINGFU BIOTARGET, published 2021).
One block for each binder: values may come before it.

Key:
human CD47 [1] = target: T1, human CD47 (human, UniProt Q08722 19-323); test: flow cytometry histogram, 20 µg/ml, fresh human RBCs diluted 2500 times
T1 construct: whole, on cells; also called CD47 on A375 cells; CD47 on human erythrocytes (RBC)

CD47-muFc = target: T2, CD47-muFc (human); test: BLI (Octet K2), CD47-muFc immobilised on AHC biosensors, 25 C
T2 construct: also called CD47-muFc fusion protein; Group 8
T2 sequence (chain, as listed by the source limits assumed): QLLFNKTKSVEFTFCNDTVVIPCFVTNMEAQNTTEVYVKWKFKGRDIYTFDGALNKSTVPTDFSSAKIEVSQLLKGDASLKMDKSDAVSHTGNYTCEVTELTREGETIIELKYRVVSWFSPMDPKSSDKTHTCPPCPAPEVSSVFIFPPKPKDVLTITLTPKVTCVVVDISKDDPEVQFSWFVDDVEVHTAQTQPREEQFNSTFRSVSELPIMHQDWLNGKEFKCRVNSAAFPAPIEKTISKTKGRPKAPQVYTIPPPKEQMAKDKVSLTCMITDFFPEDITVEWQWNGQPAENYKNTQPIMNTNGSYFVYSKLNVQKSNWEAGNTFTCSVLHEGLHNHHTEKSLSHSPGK
Experimental: All experiments were performed at 25° C. under a PBS buffer containing 0.5% BSA and 0.5% Tween 20, pH 7.2. […] After the above steps, the subtracted binding interference data were applied to the calculations of binding constants using the FortéBio analysis software provided with the instrument.

human CD47 [2] = target: T1, human CD47; test: flow cytometry histogram, 20 µg/ml, anti-hIgG Fc PE; tumor cells mixed with 15-fold excess of human RBCs; RBC gate
CD47-EGFP = target: T3, CD47-EGFP (human); test: flow cytometry (MFI, anti-hIgG Fc PE) on cells expressing CD47-EGFP, unit taken from the axis Log10(ug/ml)
T3 construct: also called cell surface human CD47; cells expressing CD47-EGFP
Experimental: The cells were then analyzed by flow cytometry (Life Technology).

binding result (human CD47 [1]): binds
B1: hu56di-CV1 (Fc fusion)
chain 1: QVQLVESGGGLVQPGGSLRLSCAASGKMSSRRCMAWFRQAPGKERERVAKLLTTSGSTYLADSVKGRFTISRDNSKNTVYLQMNSLRAEDTAVYYCAADSFEDPTCTLVTSSGAFQYWGQGTLVTVSSGAPQVQLVESGGGLVQPGGSLRLSCAASGKMSSRRCMAWFRQAPGKERERVAKLLTTSGSTYLADSVKGRFTISRDNSKNTVYLQMNSLRAEDTAVYYCAADSFEDPTCTLVTSSGAFQYWGQGTLVTVSSEPKSSDKTHTCPPCPAPELLGGPSVFLFPPKPKDTLMISRTPEVTCVVVDVSHEDPEVKFNWYVDGVEVHNAKTKPREEQYNSTYRVVSVLTVLHQDWLNGKEYKCKVSNKALPAPIEKTISKAKGQPREPQVYTLPPCRDELTKNQVSLWCLVKGFYPSDIAVEWESNGQPENNYKTTPPVLDSDGSFFLYSALTVDKSRWQQGNVFSCSVMHEALHNHYTQKSLSLSPGK
chain 2: EEELQIIQPDKSVLVAAGETATLRCTITSLFPVGPIQWFRGAGPGRVLIYNQRQGPFPRVTTVSDTTKRNNMDFSIRIGNITPADAGTYYCIKFRKGSPDDVEFKSGAGTELSVRAKPSGGGGSDKTHTCPPCPAPELLGGPSVFLFPPKPKDTLMISRTPEVTCVVVDVSHEDPEVKFNWYVDGVEVHNAKTKPREEQYNSTYRVVSVLTVLHQDWLNGKEYKCKVSNKALPAPIEKTISKAKGQPREPQVYTLPPSRDELTKNQVSLSCGVKGFYPSDIAVEWESNGQPENNYKTTPPVLDSDGSFKLASKLTVDKSRWQQGNVFSCSVMHEALHNHYTQKSLSLSPGK
notes: also called Group 14

Kd (CD47-muFc): 0.198 nM
koff (CD47-muFc): 0.000129 s⁻¹
kon (CD47-muFc): 651000 M⁻¹ s⁻¹
binding result (human CD47 [2]): binds
EC50 (CD47-EGFP): 0.981 µg/mL
B2: AB6.12 IgG1 (antibody, V domains shown)
VH: QMQLVQSGAEVKKTGSSVKVSCKASGFNIKDYYLHWVRQAPGQALEWMGWIDPDQGDTEYAQKFQDRVTITRDRSMSTAYMELSSLRSEDTAMYYCNAAYGSSSYPMDYWGQGTTVTVSS
VL: NIQMTQSPSAMSASVGDRVTITCKASQDIHRYLSWFQQKPGKVPKHLIYRANRLVSGVPSRFSGSGSGTEFTLTISSLQPEDFATYYCLQYDEFPYTFGGGTKVEIKR
notes: also called anti-CD47 monoclonal antibody AB6.12 IgG1; Group 20
